Binding signal data for two molecules are collected here from patent US20130052638, “Methods for detecting DNA-binding proteins” (Agency for Science, Technology and Research, published 2013).

Series [1] has as its target T1, Estrogen receptor beta (ERβ) (UniProt Q92731 Q92731:1-530). Put plainly: competition; free competitor at 4:1 over ERβ, 360 nM ERβ, 56 mM KCl, 5 min; strong competitor. The note with it: chain copies: 2. The procedure:
(§1) In this study, excess unmodified DNA competitor (i.e., wtERE and scrDNA, are used as strong and weak competitors, respectively) was pre-incubated with the ERβ at room temperature for 20 minutes to allow for complex formation (molar ratio of ERβ:dsDNA is 1:4), followed by the addition to the complementary mixture of v1-v2-AuNPs in 56 mM KCl, with final ERβ concentration of 360 nM. In the presence of strong competitor (wtERE), limited amount of ERβ bound to the ERE anchored on the AuNPs surface, leading to extensive particle aggregation in salt solution. […]
(§2) The aggregation state of the AuNPs was quantified using UV-Vis absorption spectrum as indicated by the shift of LSPR peak at 526 nm wavelength to a longer wavelength (e.g. 650 nm). The UV-Vis absorbance ratio at 650 nm to that at 526 nm, i.e., A650/A526 is indicative of the particle aggregation degree where a higher ratio is directly related to a larger extent of aggregation. In this study, the deviation percentage (i.e., [(X−Y)/Y]*100%) was calculated based on the difference in aggregation ratio of AuNP samples (measure as A650/A526) with competitors (denoted as X) relative to that without competitor (denoted as Y) at 5 minutes after mixing in the 56 mM KCl-containing protein binding buffer. A 9.0% of deviation was recorded for the scrambled DNA sequence (scrDNA). […]

Series [2] deals with T1, Estrogen receptor beta (ERβ). Put plainly: competition; free competitor at 4:1 over ERβ, 360 nM ERβ, 56 mM KCl, 5 min; attributed to non-specific binding. The note with it: chain copies: 2. The procedure:
as §1, §2

T1 sequence (Q92731 whole entry, one chain of several): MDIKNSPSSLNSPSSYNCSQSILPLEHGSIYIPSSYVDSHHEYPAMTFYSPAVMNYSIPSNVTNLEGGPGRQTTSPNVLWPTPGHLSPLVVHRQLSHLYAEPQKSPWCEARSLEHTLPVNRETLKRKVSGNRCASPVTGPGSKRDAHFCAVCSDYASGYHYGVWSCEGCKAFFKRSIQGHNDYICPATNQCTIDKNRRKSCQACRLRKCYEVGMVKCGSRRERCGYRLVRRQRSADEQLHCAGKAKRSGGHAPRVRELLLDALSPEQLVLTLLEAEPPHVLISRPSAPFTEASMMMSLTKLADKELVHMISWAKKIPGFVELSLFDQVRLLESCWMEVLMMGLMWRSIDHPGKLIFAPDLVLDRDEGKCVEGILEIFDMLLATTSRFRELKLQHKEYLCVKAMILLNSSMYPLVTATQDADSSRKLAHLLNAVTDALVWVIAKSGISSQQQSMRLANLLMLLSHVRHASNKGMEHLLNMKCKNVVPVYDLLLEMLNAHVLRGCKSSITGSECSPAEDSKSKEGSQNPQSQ

B1: wtERE competitor (free) (dsDNA)
DNA 1: GTCCAAAGTCAGGTCACAGTGACCTGATCAAAGT
DNA 2: ACTTTGATCAGGTCACTGTGACCTGACTTTGGAC
Turning to B1, in series [1], the binding signal was 35 % deviation of aggregation ratio.

B2: scrDNA competitor (free) (dsDNA)
DNA 1: GTCCAAAGTCAATCGCCAGCACGATGATCAAAGT
DNA 2: ACTTTGATCATCGTGCTGGCGATTGACTTTGGAC
As for B2, the binding signal in series [2] was 9 % deviation of aggregation ratio.
